Source: the supplement of paper PMC11780869

Tested on: Bacillus subtilis
Test: cleaved RNA product abundance (RNA/gDNA barcode ratio) relative to median wild-type variant (ratio to wild type); higher = more accumulation of the downstream cleavage product
In short: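 The B. subtilis chromosome carried reporter mRNAs, truncated aprE or tetM, containing barcoded RNase Y cleavage-site windows mutagenized using oligos with a 9% error rate. After growth in LB at 37°C from OD600 0.0003 to 0.3, cleaved RNA was gel-selected, reverse transcribed and barcode-sequenced next to genomic DNA barcodes, with UMI collapsing. Each construct's RNA:gDNA barcode ratio was scaled to the median construct with the unmutated site. That scaled ratio is reported as cleaved product abundance.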

[1] = experiment (reporter, strain, medium): exp 4a: truncated aprE reporter, strain BJT201 with 2% xylose (RNase J1 expressed), cleavage site: cggR-gapA (positions -7 to +36 mutated)
[2] = experiment (reporter, strain, medium): exp 2b: truncated aprE reporter, strain BJT200, cleavage site: cggR-gapA (positions -7 to +36 mutated)
[3] = experiment (reporter, strain, medium): exp 6: tetM reporter, strain 168, cleavage site: cggR-gapA (positions -7 to +36 mutated)
[4] = experiment (reporter, strain, medium): exp 8a: truncated aprE reporter, strain BJT201 with 2% xylose (RNase J1 expressed), cleavage site: glnRA (positions -5 to +31 mutated)

Row | Sequence | cleaved RNA product abundance [1] | cleaved RNA product abundance [4] | further results
1 | ACAGACGAAGGAGCCGCAAAGAATTTATTAAGGGATGAACAATCCCTCAATATAAAAATCTCTCACTTATTTAAA | 0.8 |  | 
2 | ACAGACGAAGGAGCCGCAAAGAAGTTATTAAGGGATGAATAATCCCTCAATATAAACATCTCTCACTTATTTAAA | 0.702 |  | cleaved RNA product abundance [2]: 0.652; cleaved RNA product abundance [3]: 0.847
3 | ACAGACGAAGGAGCCGCAAAGAAGTTCTTAAGGGATGAATAATCCATCAATATAAATATCTCTCACTTATTTAAA | 0.199 |  | 
4 | ACAGACGAAGGAGCCGCAAAGAAGTTATTAAGGGATGAATCATCTCTCAATATAAATATCTCTCACTTATTTAAA | 0.595 |  | 
5 | ACAGACGAAGGAGCCGCAAAGAAATTATTAAGGGATGAATAATCCCGCAATATAAATATCTCTCACTTATTTAAA | 0.214 |  | 
6 | CGACATGTCCCGCTTCTTTCATTAATCCGTTAGCAACTGTTTTGCTAAATACATTTATCTTTTAAGAGGAGGAAT |  | 0.814 | 
7 | CGACATGTCCCGCTTCTTTCATTAATCCGTTACCAACTGTTTTGCTAAATACATTTACCTTTTAAGAGGAGGAAT |  | 0.169 | 
8 | ACAGACGAAGGAGCCGCAAAGATGCTATTAAGGGATGAATAATCCCTCAATATAAATATCTCTCACTTATTTAAA | 0.848 |  | 
9 | ACAGACGAAGGAGCCGCAAAGAATTTATTAAGGGATGAATAATCCCTCAATATAAATAGCTCTCACTTATTTAAA | 0.327 |  | 
10 | ACAGACGAAGGAGCCGCAAAGATGTTATTAAGGGATGAATAATCCCTCAATATATATATCTCTCACTTATTTAAA | 0.975 |  | 
11 | CGACATGTCCCGCTTCTTTCATTAATCCGTTAGCAACTGTTTTGCTATTTACATCTACCTTTTAAGAGGAGGAAT |  | 0.276 | 
12 | CGACATGTCCCGCTTCTTTCATTAATCCGTTAGCAACTGTTTTGCTATATACATTTCCCATTTAAGAGGAGGAAT |  | 1.11 | 
13 | CGACATGTCCCGCTTCTTTCATTAATCCATTAGAAACTGTTTTTCTATTTACATTTACCTTTTAAGAGGAGGAAT |  | 0.127 | 
14 | ACAGACGAAGGAGCCGCAAAGAAGTTATTAAGGGATCAATAATCCCACAATATAAATATCTCTCACTTATTTAAA | 0.208 |  | cleaved RNA product abundance [2]: 0.192
15 | ACAGACGAAGGAGCCGCAAAGAAGTTATTAAGGGATGAACTATCCCTCAATATAAATATCTCTCACTTATTTAAA | 0.794 |  | 
16 | CGACATGTCCCGCTTCTTTCATTAATCCGTTCGCAACTGTTTTGATATATACATTTACCTTTTAAGAGGAGGAAT |  | 0.334 | 
17 | ACAGACGAAGGAGCCGCAAAGAAGTCATGAAGGGATGAATAATCCCTCAATATAAATATCTCTCACTTATTTAAA | 0.325 |  | 
18 | CGACATGTCCCGCTTCTTTCATTAATCCGTTAGCAACTGATTTGCTATATACATTTACCTTTTAAGAGGAGGAAT |  | 0.96 | 
19 | CGACATGTCCCGCTTCTTTCATTAATCCGTTAGCAACTGTTTTGCTATAAACATTTAACTTTTAAGAGGAGGAAT |  | 0.912 | 
20 | CGACATGTCCCGCTTCTTTCATTATTCCGTAAGCAACTGTTTTGCTATATACATTTACCTTTTAAGAGGAGGAAT |  | 0.594 | 
21 | CGACATGTCCCGCTTCTTTCATTAATCCATTACCAACTGTTTTGCTATATACATTTACCTTTTAAGAGGAGGAAT |  | 0.17 | 

Row | Sequence | cleaved RNA product abundance [1] | cleaved RNA product abundance [4] | further results
22 | CGACATGTCCCGCTTCTTTCATTAATCCGTTATCAACTGTTTTGCTATATCCATTTACCTTTTAAGAGGAGGAAT |  | 0.136 | 
23 | ACAGACGAAGGAGCCGCAAAGAAGTTATTAAGGTATGAATAATACCTCAATATAAATATCTCTCACTTATTTAAA | 1.16 |  | cleaved RNA product abundance [2]: 1
24 | CGACATGTCCCGCTTCTTTCATTAATCCGGTAACAACTGTTTTGCTATATACATTTACCTTTTAAGAGGAGGAAT |  | 0.34 | 
25 | CGACATGTCCCGCTTCTTTCATTAATACGTTAGCAACTGTTTTGCTATATATATTTACCTTTTAAGAGGAGGAAT |  | 1.83 | 
26 | ACAGACGAAGGAGCCGCAAAGAAGTTATTAAAGGATGAATAATCCCTCAATATAGATATCTCTCACTTATTTAAA | 0.0996 |  | 
27 | ACAGACGAAGGAGCCGCAAAAAAGTTATTAAGGCATGAATAATCCCTCAATATAAATATCTCTCACTTATTTAAA | 0.126 |  | cleaved RNA product abundance [2]: 0.104
28 | CGACATGTCCCGCTTCTTTCATTAAACCGTTAGCAACTGTTTTGCTATATACTTTTACCTTTTAAGAGGAGGAAT |  | 0.534 | 
29 | ACAGACGAAGGAGCCGCAAAGAAGTTATTAAGGGATGTATAATCCCTTAATATAAATATCTCTCACTTATTTAAA | 0.445 |  | 
30 | CGACATGTCCCGCTTCTTTCATTAATCCGTTAGCAACTGTATTGCTATATACATTTACATTTTAAGAGGAGGAAT |  | 1.47 | 
31 | CGACATGTCCCGCTTCTTTCATTAATCCGATAGCAACTGTTTTGCTATATACATTTACCTTTTAAGAGGAGGAAT |  | 0.795 | 
32 | CGACATGTCCCGCTTCTTTCATTAATCCGTTAACAACTTTTTTGCTATATACATTTACCTTTTAAGAGGAGGAAT |  | 0.193 | 
33 | ACAGACGAAGGAGCCGCAAAGAAGCTATTAAGGGATGAATATTCCCTCAATATAAATATCTCTCACTTATTTAAA | 0.56 |  | cleaved RNA product abundance [2]: 0.469
34 | ACAGACGAAGGAGCCGCAAAGAAATTATTAAGGGATGAATAATCGCTCAATATAAATATCTCTCACTTATTTAAA | 0.101 |  | 
35 | ACAGACGAAGGAGCCGCAAAGAACTTATTAAGGGATGAATAATCCTTCAATATAAATATCTCTCACTTATTTAAA | 0.342 |  | 
36 | ACAGACGAAGGAGCCGCAAAGAATTTATTAAGGGATGAACAATCCCTCAATATAAATATCTCTCACTTATTTAAA | 0.451 |  | 
37 | ACAGACGAAGGAGCCGCAAAGAAGTTATTAAGGGATCAATAATCCCTCAATTTAAATATCTCTCACTTATTTAAA |  |  | cleaved RNA product abundance [2]: 0.197
38 | ACAGACGAAGGAGCCGCAAAGAAGTTATTAAGGTATAAATAATCCCTCAATATAAATATCTCTCACTTATTTAAA | 0.112 |  | cleaved RNA product abundance [2]: 0.0876
39 | ACAGACGAAGGAGCCGCAAAGAAGTTATTAAGGGATGATTAATCCCTTAATATAAATATCTCTCACTTATTTAAA | 0.554 |  | 
40 | ACAGACGAAGGAGCCGCAAAGAAGTTATTAAGTGATGAATAATCACTCAATATAAATAACTCTCACTTATTTAAA | 1.16 |  | 
41 | CGACATGTCCCGCTTCTTTCATTAATCCGTTAGCAACTATTTTGCTTTATACATTTACCTTTTAAGAGGAGGAAT |  | 0.459 | 
42 | CGACATGTCCCGCTTCTTTCATTAATACGTTAGAAACTGTTTTGCTATATACATTTACCTTTTAAGAGGAGGAAT |  | 0.292 | 

Row | Sequence | cleaved RNA product abundance [1] | cleaved RNA product abundance [4] | further results
43 | ACAGACGAAGGAGCCGCACAGAAGTTATTAAGGGATGAATAATCCCTTAATATAAATATCTCTCACTTATTTAAA | 0.633 |  | 
44 | CGACATGTCCCGCTTCTTTCATTAATCAGTTAGCAACTGTTTTGCAATATACATTTACCTTTTAAGAGGAGGAAT |  | 0.332 | 
45 | ACAGACGAAGGAGCCGCAAAGAATTTATTAAGGGATGAATAACCCCTCAATATAAATATCTCTCACTTATTTAAA | 0.452 |  | 
46 | CGACATGTCCCGCTTCTTTCATTAATCCGTTAGCAACTGTTTTGTTATATACAGTTACCTTTTAAGAGGAGGAAT |  | 0.162 | 
47 | ACAGACGAAGGAGCCGCAAAGAAGTTAATAAGGGATGAATAATCCCTCACTATAAATATCTCTCACTTATTTAAA | 0.263 |  | 
48 | CGACATGTCCCGCTTCTTTCATTAATCCGTTACCAACAGTTTTGCTATATACATTTACCTTTTAAGAGGAGGAAT |  | 0.215 | 
49 | ACAGACGAAGGAGCCGCAAAGAATTTATTAAGGGATCAATAATCCCTCAATATAAATATCTCTCACTTATTTAAA | 0.73 |  | 
50 | ACAGACGAAGGAGCCGCAAAGAAGTTATTAAGGGATGAATAATCCACCAATATAAATATCTCTCACTTATTTAAA | 0.142 |  | cleaved RNA product abundance [2]: 0.186
51 | ACAGACGAAGGAGCCGCAAAGAAGTTATTAAGGGATGAATAATCACTCAATATATATATCTCTCACTTATTTAAA | 0.132 |  | 
52 | CGACATGTCCCGCTTCTTTCATTAATCCGTAAGCAACTGTTTTGCTAAATACATTTACCTTTTAAGAGGAGGAAT |  | 0.36 | 
53 | CGACATGTCCCGCTTCTTTCATTAATCCCTAAGCAACTGTTTTGCTATATACATTTACCTTTTAAGAGGAGGAAT |  | 0.229 | 
54 | CGACATGTCCCGCTTCTTTCATTAATCCATTAGCAACTGTTTTGCAATATACATTTACCTTTTAAGAGGAGGAAT |  | 0.408 | 
55 | CGACATGTCCCGCTTCTTTCATTAATCCGTTAGCAACTGTTTTGATATAAACATTTACCTTTTAAGAGGAGGAAT |  | 0.399 | 
56 | ACAGACGAAGGAGCCGCAAAGAAGCTATTAAGGGATGAATAATACCTCAATATAAATATCTCTCACTTATTTAAA |  |  | cleaved RNA product abundance [2]: 0.0928
57 | ACAGACGAAGGAGCCGCAAAGAAGTTATTAAGGGATGAAAAATCCCTCAATATAAATGTCTCTCACTTATTTAAA | 0.622 |  | cleaved RNA product abundance [2]: 0.304
58 | ACAGACGAAGGAGCCGCAAAGAAGCTATTAATGGATGAATAATCCCTCAATATAAATATCTCTCACTTATTTAAA | 0.123 |  | 
59 | ACAGACGAAGGAGCCGCAAAGAAGTTATTAAGGGATGAATAATCCCTCAATATAAAAATTTCTCACTTATTTAAA | 0.688 |  | 
60 | ACAGACGAAGGAGCCTCAAAGAAGTTATTAAGTGATGAATAATCCCTCAATATAAATATCTCTCACTTATTTAAA |  |  | cleaved RNA product abundance [3]: 0.135
61 | ACAGACGAAGGAGCCGCAAAGAAGTTATTCAGGGATGATTAATCCCTCAATATAAATATCTCTCACTTATTTAAA |  |  | cleaved RNA product abundance [2]: 0.532
62 | ACAGACGAAGGAGCCGCAAAGAAGTTATTATGGGATGTATAATCCCTCAATATAAATATCTCTCACTTATTTAAA |  |  | cleaved RNA product abundance [2]: 0.31
